Results: publication PMC2935290

Biological target: HLA-DPB1*0101 (human (endogenous in VAVY))
Experiment: radioligand binding

… A7W (peptide) was tested. Which other did it give?
Its other is 3.1.
